Source: US20230399641A1
Where two headings read alike, the source gives them in different places.

Tests used:
No hACE2 [1] = target: No hACE2
No hACE2 [2] = target: No hACE2; remark: listed apart in the source
No hACE2 [3] = target: No hACE2; remark: listed apart in the source

## receptor binding domain (RBD) of HCoV-NL63 spike (residues 481-616) (from UniProt Q6Q1S2 481-616) (ligand)
No hACE2 [1]
  % of cells in the PE-positive (RBD-bound) gate: 0.37%

## receptor binding domain (RBD) of SARS-CoV spike (residues 306-527) (from UniProt P59594 306-527) (ligand)
No hACE2 [2]
  % of cells in the PE-positive (RBD-bound) gate: 0.24%

## receptor binding domain (RBD) of wildtype SARS-CoV-2 spike (residues 319-541) (from UniProt P0DTC2 319-541) (ligand)
No hACE2 [3]
  % of cells in the PE-positive (RBD-bound) gate: 0.17%
